The values below come from paper PMC7935978.

The test system of this data set is FUS-Gal4. The experiment in a line: single-molecule (DNA curtains, koff/kon). Conditions: condensate-DNA interaction; protein label and DNA substrate inferred; 40 mM Tris-HCl pH 7.5, 150 mM KCl, 2 mM MgCl2, 1 mM DTT, 0.2 mg/ml BSA; EMSA 30 min at room temperature.

On to Lambda DNA + 7x Gal4 sites, for which the Kd was found to be 0.8 nM. This lies in the sub-nanomolar range.
